Earlier results on one substance are cited in article PMC3486867.

The target of this series is Asp408 (UniProt position 408, GLLVDDAIVVV). Kind of series: chemical modification (inferred from the title of ref 54: site-directed mutagenesis and carbodiimide labeling).

As a reminder, the pKa is the pH at which an ionisable group is half protonated. On to “Multidrug transporter AcrB (not stated (Escherichia coli inferred))”, for which the pKa was 7.4.
